The target in test [1] is c-kit proto-oncogene (receptor of KL) on human cells (human, UniProt P10721). The experiment in a line: cell-based or functional assay.
Test [2] addresses c-kit proto-oncogene (receptor of KL) on murine cells (murine, UniProt P05532). The experiment in a line: cell-based or functional assay.

B1: murine covalent dimer kit ligand (KL-CD), biologically active form (ligand)
chain: MMKKTQTWIITCIYLQLLLFNPLVKTKEICGNPVTDNVKDITKLVANLPNDYMITLNYVAGMDVLPSHCWLRDMVIQLSLSLTTLLDKFSNISEGLSNYSIIDKLGKIVDDLVLCMEENAPKNIKESPKRPETRSFTPEEFFSIFNRSIDAFKDFMVASDTSDCV
modifications: at least one intermolecular disulfide bond between one of the four cysteines (4, 43, 89, 138) of one monomer and one of the four cysteines of the other monomer; which cysteines is not determined
As for B1, the “proliferation of human cell lines (M07e), 3H-thymidine incorporation” value in test [1] amounted to 10 fold. Moreover, the “proliferation of murine mast cells (BMMC), 3H-thymidine incorporation” value in test [2] is 10 fold.

(Values after patent publication US5525708, “Covalent dimer of kit ligand” (CytoMed, Inc., dated 1996).)
